The text below walks through data of the Human Domainome abundance scans (Beltran et al. 2025).

± gives the uncertainty stated by the source.

B1: Chromodomain-helicase-DNA-binding protein 4, residues 365 to 417; numbered along this chain, Q14839 (parent)
chain: YETDHQDYCEVCQQGGEIILCDTCPRAYHMVCLDPDMEKAPEGKWSCPHCEKE

Variants of B1 are the subject of this series. Put plainly: abundance fitness (aPCA) (normalised: wild type 0, dead -1); higher = more abundant; growth selection in yeast, the domain comes from the species named. The settings on record: Homo sapiens.
Turning to G16R, the abundance fitness worked out at 0.009 ± 0.082.

Take G16Y: the abundance fitness is -0.262 ± 0.32.

For G16N, the abundance fitness is 0.144 ± 0.22.

For the variant G16V, the abundance fitness was -0.341 ± 0.1.

For G16P, the abundance fitness is -0.347 ± 0.12.

Turning to G16S, the abundance fitness came to 0.069 ± 0.098.

Turning to G16M, the abundance fitness is -0.095 ± 0.16.

G16T: the abundance fitness was 0.242 ± 0.12.

G16Q: the abundance fitness is 0.036 ± 0.14.

Regarding G16L, the abundance fitness is -0.016 ± 0.1.

In the case of I19R, the abundance fitness was 0.022 ± 0.094.

On to I19E, for which the abundance fitness is -0.07 ± 0.13.

Take I19C: the abundance fitness is -0.25 ± 0.19.

Regarding I19G, the abundance fitness was -0.137 ± 0.079.

For I19N, the abundance fitness was -0.097 ± 0.22.

Consider I19F, for which the abundance fitness is -0.404 ± 0.3.

In the case of I19S, the abundance fitness was -0.143 ± 0.13.

For I19M, the abundance fitness is 0.277 ± 0.17.

Regarding I19P, the abundance fitness was -0.849 ± 0.19.

As for I19W, the abundance fitness was -0.199 ± 0.11.

Consider I19K, for which the abundance fitness worked out at 0.127 ± 0.14.

Turning to I19D, the abundance fitness is -0.154 ± 0.15.

For I19A, the abundance fitness was found to be 0.085 ± 0.097.

As for I19T, the abundance fitness is -0.101 ± 0.12.

In the case of I19Y, the abundance fitness was -0.629 ± 0.41.

As to I19L, the abundance fitness is -0.145 ± 0.11.

Turning to I19Q, the abundance fitness is -0.124 ± 0.18.

Turning to V31N, the abundance fitness came out at 0.113 ± 0.21.

As to V31C, the abundance fitness is 0.138 ± 0.18.

For V31P, the abundance fitness stood at 0 ± 0.14.

As to V31T, the abundance fitness is -0.431 ± 0.17.

As to V31L, the abundance fitness came out at 0.258 ± 0.098.

On to V31W, for which the abundance fitness is -0.236 ± 0.14.

For V31Y, the abundance fitness worked out at 0.112 ± 0.16.

As for V31A, the abundance fitness was found to be 0.121 ± 0.11.

Take V31Q: the abundance fitness was -0.1 ± 0.14.

With V31E, the abundance fitness is -0.089 ± 0.13.

For the variant V31G, the abundance fitness is -0.017 ± 0.091.

For the variant V31H, the abundance fitness worked out at 0.104 ± 0.18.

As to V31M, the abundance fitness is -0.417 ± 0.16.

V31D: the abundance fitness was -0.005 ± 0.14.

With V31S, the abundance fitness is 0.044 ± 0.11.

Regarding V31I, the abundance fitness was -0.234 ± 0.15.

In the case of V31R, the abundance fitness was -0.032 ± 0.1.

As to V31F, the abundance fitness is -0.031 ± 0.16.

Turning to V31K, the abundance fitness is 0.027 ± 0.17.

For the variant H29N, the abundance fitness was -0.491 ± 0.26.

For H29E, the abundance fitness is -0.951 ± 0.15.

As for H29C, the abundance fitness amounted to 0.028 ± 0.16.

Regarding H29L, the abundance fitness is -1.04 ± 0.14.

In the case of H29T, the abundance fitness was -0.79 ± 0.15.

For the variant H29G, the abundance fitness was -0.698 ± 0.093.

With H29P, the abundance fitness is -1.1 ± 0.21.

Take H29V: the abundance fitness is -1.15 ± 0.11.

H29Y: the abundance fitness is -0.841 ± 0.16.

H29I: the abundance fitness was -1.17 ± 0.24.

For H29W, the abundance fitness was -0.999 ± 0.12.

Turning to H29S, the abundance fitness was -0.477 ± 0.11.

As for H29K, the abundance fitness is -0.943 ± 0.19.

With H29Q, the abundance fitness is -0.746 ± 0.14.

Take H29F: the abundance fitness was -1.05 ± 0.29.

As to H29D, the abundance fitness was -0.306 ± 0.19.

As to H29M, the abundance fitness is -0.686 ± 0.16.

As to H29A, the abundance fitness is -0.967 ± 0.13.

On to C21D, for which the abundance fitness is -0.657 ± 0.21.

On to C21I, for which the abundance fitness was -0.802 ± 0.36.

For C21T, the abundance fitness is -0.467 ± 0.19.

Consider C21P, for which the abundance fitness was -1.11 ± 0.24.

As for C21K, the abundance fitness is -0.734 ± 0.17.

As to C21E, the abundance fitness was -0.893 ± 0.19.

Take C21N: the abundance fitness is -0.983 ± 0.27.

Turning to C21F, the abundance fitness was -1.11 ± 0.26.

For the variant C21Q, the abundance fitness is -0.468 ± 0.27.

For the variant C21M, the abundance fitness is -0.911 ± 0.17.

With C21A, the abundance fitness is -0.882 ± 0.14.

For the variant C21Y, the abundance fitness is -0.765 ± 0.23.

Regarding C21S, the abundance fitness is -0.889 ± 0.17.

For the variant C21R, the abundance fitness is -0.743 ± 0.13.

With C21W, the abundance fitness was -0.738 ± 0.14.

On to C21V, for which the abundance fitness is -0.877 ± 0.13.

On to C21L, for which the abundance fitness is -1.06 ± 0.15.

R26M: the abundance fitness was 0.183 ± 0.14.

Turning to R26F, the abundance fitness is -0.288 ± 0.14.

On to R26T, for which the abundance fitness is -0.191 ± 0.12.

R26E: the abundance fitness is -0.356 ± 0.17.

Turning to R26L, the abundance fitness is -0.231 ± 0.1.

Take R26Y: the abundance fitness was -0.413 ± 0.21.

Regarding R26H, the abundance fitness was -0.273 ± 0.23.

On to R26D, for which the abundance fitness is -0.249 ± 0.17.

For the variant R26V, the abundance fitness is -0.226 ± 0.1.

Regarding R26K, the abundance fitness was -0.065 ± 0.17.

R26P: the abundance fitness is -0.348 ± 0.17.

On to R26S, for which the abundance fitness is -0.134 ± 0.11.

For R26W, the abundance fitness was -0.791 ± 0.15.

Consider R26C, for which the abundance fitness is -0.462 ± 0.16.

For R26I, the abundance fitness is -0.014 ± 0.15.

R26A: the abundance fitness is -0.137 ± 0.11.

On to R26G, for which the abundance fitness is -0.112 ± 0.094.

Regarding D34A, the abundance fitness was -0.07 ± 0.12.

D34C: the abundance fitness was found to be 0.018 ± 0.16.

For the variant D34H, the abundance fitness is -0.069 ± 0.18.

As for D34F, the abundance fitness is -0.282 ± 0.14.

With D34N, the abundance fitness is -0.091 ± 0.17.

Turning to D34Y, the abundance fitness was -0.118 ± 0.15.

Turning to D34R, the abundance fitness is -0.145 ± 0.092.

Regarding D34G, the abundance fitness stood at 0.037 ± 0.094.

D34P: the abundance fitness was -0.149 ± 0.18.

With D34S, the abundance fitness is -0.146 ± 0.11.

As to D34T, the abundance fitness is -0.047 ± 0.14.

For the variant D34V, the abundance fitness was -0.094 ± 0.099.

Take D34W: the abundance fitness stood at 0.009 ± 0.14.

As to D34K, the abundance fitness was -0.314 ± 0.12.

As for D34Q, the abundance fitness is -0.257 ± 0.2.

For D34I, the abundance fitness was -0.463 ± 0.2.

Regarding D34L, the abundance fitness was -0.025 ± 0.097.

With M30F, the abundance fitness is -0.19 ± 0.14.

As for M30L, the abundance fitness was -0.149 ± 0.075.

Take M30H: the abundance fitness is -0.433 ± 0.2.

In the case of M30R, the abundance fitness is -0.266 ± 0.099.

On to M30G, for which the abundance fitness was -0.126 ± 0.086.

As for M30S, the abundance fitness is -0.228 ± 0.1.

Take M30I: the abundance fitness is -0.02 ± 0.19.

In the case of M30K, the abundance fitness came out at 0.115 ± 0.18.

Regarding M30V, the abundance fitness was -0.137 ± 0.099.

For the variant M30T, the abundance fitness was determined as 0.077 ± 0.16.

Consider M30D, for which the abundance fitness was -0.272 ± 0.12.

Turning to M30A, the abundance fitness was -0.064 ± 0.1.

M30W: the abundance fitness was -0.119 ± 0.12.

For the variant M30E, the abundance fitness amounted to 0.075 ± 0.12.

Take M30Q: the abundance fitness is -0.287 ± 0.17.

Consider P35L, for which the abundance fitness was -0.191 ± 0.1.

In the case of P35V, the abundance fitness was -0.04 ± 0.098.

For P35W, the abundance fitness is -0.236 ± 0.13.

In the case of P35G, the abundance fitness was found to be 0.038 ± 0.089.

Regarding P35S, the abundance fitness came out at 0.125 ± 0.11.

In the case of P35H, the abundance fitness was -0.001 ± 0.33.

As for P35C, the abundance fitness was -0.1 ± 0.15.

Turning to P35R, the abundance fitness worked out at 0.029 ± 0.1.

P35K: the abundance fitness was -0.374 ± 0.18.

On to P35T, for which the abundance fitness stood at 0.054 ± 0.14.

For the variant P35Q, the abundance fitness is -0.284 ± 0.22.

Turning to P35Y, the abundance fitness was 0.272 ± 0.26.

P35A: the abundance fitness was -0.016 ± 0.097.

Take P35N: the abundance fitness was -0.023 ± 0.26.

In the case of P35E, the abundance fitness was -0.345 ± 0.15.

As for P35M, the abundance fitness was -0.054 ± 0.16.

As for D22A, the abundance fitness worked out at 0.056 ± 0.098.

As for D22W, the abundance fitness was -0.219 ± 0.14.

For the variant D22F, the abundance fitness was -0.129 ± 0.19.

With D22N, the abundance fitness is -0.101 ± 0.14.

With D22I, the abundance fitness was found to be 0.03 ± 0.2.

As to D22T, the abundance fitness was 0.089 ± 0.12.

Take D22H: the abundance fitness was -0.528 ± 0.28.

D22L: the abundance fitness is -0.34 ± 0.13.

For the variant D22Q, the abundance fitness was 0.083 ± 0.21.

As for D22Y, the abundance fitness is -0.42 ± 0.23.

D22P: the abundance fitness is -0.721 ± 0.26.

On to D22S, for which the abundance fitness is -0.272 ± 0.12.

As for D22G, the abundance fitness is -0.021 ± 0.09.

In the case of D22V, the abundance fitness is -0.065 ± 0.11.

Consider C32P, for which the abundance fitness was -0.794 ± 0.19.

Regarding C32T, the abundance fitness is -0.94 ± 0.17.

In the case of C32Q, the abundance fitness is -1.08 ± 0.23.

Regarding C32I, the abundance fitness was -0.916 ± 0.24.

For the variant C32E, the abundance fitness is -0.504 ± 0.17.

As for C32L, the abundance fitness was -0.776 ± 0.12.

C32K: the abundance fitness was -0.817 ± 0.22.
